The values below come from PMC11235169 (2024).

By Ki is commonly meant the equilibrium dissociation constant of an inhibitor or competing ligand from its target. What is called Kd is the free concentration of one partner at which half of the binding sites on the other are occupied at equilibrium, for simple one-to-one binding. A word on the stoichiometry N: it is the number of molecules, sites or subunits per partner or assembly.

Assay [1] concerns the target T1, recombinant sushi domain protein.
T1 chain: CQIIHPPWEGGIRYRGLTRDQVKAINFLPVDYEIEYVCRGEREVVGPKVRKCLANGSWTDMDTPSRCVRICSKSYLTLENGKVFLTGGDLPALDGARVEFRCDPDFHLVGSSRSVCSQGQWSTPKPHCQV
In words: FP.

In a further assay the target is T2, TMR-hAJAP17 (human).
T2 chain: ETEFIAWGPTGDEEALE
Briefly: fluorescence polarisation; saturation binding: sushi domain protein (0.73 to 1500 nM) added to TMR-hAJAP17 (25 nM); 20 mM NaPi pH 6.8, 50 mM NaCl, 0.5 mM EDTA, 1% BSA, 25°C; one-site binding model. Background: Polarisation of emitted light reports the rotation of a fluorescent probe.

Assay [2] deals with T1, recombinant sushi domain protein. In words: ITC.
Assay [3] addresses recombinant sushi domain protein. Briefly: ITC; 100 μM hAJAP17 or 300 μM W183C peptide injected into 10 or 30 μM sushi domain protein in the cell; 25°C; 20 mM NaPi pH 7.4; one-site binding model.
Assay [4] has the same target. In words: fluorescence polarisation; competition: preformed complex of sushi domain protein (40 nM) and TMR-hAJAP17 (25 nM) outcompeted with unlabeled peptides (0.006 to 6.25 μM or 0.03 to 62.5 μM); 20 mM NaPi pH 6.8, 50 mM NaCl, 0.5 mM EDTA, 1% BSA, 25°C; Ki calculated from sigmoidal dose-response fits.

B1: mAJAP17-W183C (peptide)
chain: ETEFIACGPTGDEDALE
modifications: Limits taken by alignment with the printed human 17-mer … (177-193, W183 at position 7; W183 has the same number in mouse). C-terminal amide is likely, as printed for the TMR-hAJAP17 peptide, but is not stated for this one
Take B1: the Ki in assay [1] came out at 44.8 µM.

B2: recombinant sushi domain protein (domain or fragment)
chain: T1 chain
modifications: not checked
In turn, B2 yielded a Kd with TMR-hAJAP17 (human) of 0.0204 µM. In the case of ETEFIACGPTGDEEALE [hAJAP17-W183C], the Ki in assay [1] was determined as 49.3 µM. The Kd in assay [2] amounted to 46.7 µM. Consider ETEFIAWGPTGDEEALE [hAJAP17], for which, in assay [3], the Kd is 0.047 µM and the stoichiometry N is 1. Further, the Ki in assay [4] was 0.06 µM.
